One test concerns the target MazF6 library. The test is described as follows: flow cytometry on cells. A general note: Flow cytometry measures light scatter and fluorescence of single cells or particles in a stream.
In test [1] the target is T1, MazF9 toxin, (His)6MazF(FLAG)3 (Mycobacterium tuberculosis, UniProt P71650 1-118).
T1 chain: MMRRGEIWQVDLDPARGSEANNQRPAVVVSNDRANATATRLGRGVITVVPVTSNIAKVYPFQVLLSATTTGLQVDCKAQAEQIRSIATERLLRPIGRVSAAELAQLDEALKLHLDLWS
The test is described as follows: MST.

B1: MazE6 antitoxin, full length, purified (natural protein)
chain: MKTAISLPDETFDRVSRRASELGMSRSEFFTKAAQRYLHELDAQLLTGQIDRALESIHGTDEAEALAVANAYRVLETMDDEW
One may read the Kd as a measure of binding affinity in units of concentration. On to B1, for which, in the test with MazF6 library, the Kd was determined as 0.13 nM.
On to RLAERDAEILATNTSATGDLDTLAGHCARTALDID [C-terminal MazE3 peptide (residues 72-106)], for which, in test [1], the Kd came to 173 nM.
For LEDDYANAWQEWSAAGDTDAWEQTVGDGVGDAPR [C-terminal MazE9 peptide (residues 43-76)], binding in test [1] was characterised by a dissociation constant (Kd) of 5.2 nM.
